From the RNAGym collection of RNA variant scans (doi:10.7554/elife.80360)

B1: HDV Ribozyme (parent)
chain: GGCCGGCAUGGUCCCAGCCUCCUCGCUGGCGCCGGCUGGGCAACAUUCCGAGGGGACCGUCCCCUCGGUAAUGGCGAAUGGGACCCA

Variants of: B1
Assay: self-cleavage, relative activity (ratio to wild type); higher = more cleavage; co-transcriptional

In order of falling self-cleavage:
1. AGCCGGCAUGGGCCCAGCCUCCUCGCUGGCGCCGGCUGGGCAACAUUCCGAGGGGACCGUCCCCUCGGUAAUGGCGAAUGGGACCCA [G1A U12G]  0.554
2. AGCCGACAUGGUCCCAGCCUCCUCGCUGGCGCCGGCUGGGCAACAUUCCGAGGGGACCGUCCCCUCGGUAAUGGCGAAUGGGACCCA [G1A G6A]  0.437
3. AGCCGGCACGGUCCCAGCCUCCUCGCUGGCGCCGGCUGGGCAACAUUCCGAGGGGACCGUCCCCUCGGUAAUGGCGAAUGGGACCCA [G1A U9C]  0.369
4. AGCCGGCAUGGUCCCAGCCUCCUCGCUGGCGCCGGCUGGGCAACAUUCCGAGGCGACCGUCCCCUCGGUAAUGGCGAAUGGGACCCA [G1A G54C]  0.364
5. AGCCGGCAUGGUCCCAGCCUCCUCGCUGGCGCCGGCUGGGCAACAUUCCGAGGGUACCGUCCCCUCGGUAAUGGCGAAUGGGACCCA [G1A G55U]  0.309
6. AGCCGGCAGGGUCCCAGCCUCCUCGCUGGCGCCGGCUGGGCAACAUUCCGAGGGGACCGUCCCCUCGGUAAUGGCGAAUGGGACCCA [G1A U9G]  0.302
7. AGCCGGCAUGGUCCCAGCCUCCUCGCUGGCGCCGGCUGGGCAACAUUCCCAGGGGACCGUCCCCUCGGUAAUGGCGAAUGGGACCCA [G1A G50C]  0.302
8. AGCCGGCAUGGUCCCAGCCUCCUCGCUGGCGCCGGCUGGGCAACAUUCCGAGGGGACCGGCCCCUCGGUAAUGGCGAAUGGGACCCA [G1A U60G]  0.302
9. AGCCGGCAUGGUCCCGGCCUCCUCGCUGGCGCCGGCUGGGCAACAUUCCGAGGGGACCGUCCCCUCGGUAAUGGCGAAUGGGACCCA [G1A A16G]  0.302
10. AGCCGGCAUGGUCCCAGCCUCCUCGCUGGCGCCGGCUGGGCAACAUUCCGAGGGGACCGUCCCCUCGGUAAUGGCGAAUGCGACCCA [G1A G81C]  0.269
11. AGCCGGCAUGGUCCCAGCCUCCUCGCUGGCGCCGGCUGGGCAACAUUCCGAGGGGACCGUCCCCUAGGUAAUGGCGAAUGGGACCCA [G1A C66A]  0.26
12. AGCCGGCAUGGUCCCAGCCUCCUCGCUGGCGCCGGUUGGGCAACAUUCCGAGGGGACCGUCCCCUCGGUAAUGGCGAAUGGGACCCA [G1A C36U]  0.244
13. AGCCGGCAUGGUCCCAGCCUCCUCGCUGGCGCCGGCUGGGCAACAUUCCGACGGGACCGUCCCCUCGGUAAUGGCGAAUGGGACCCA [G1A G52C]  0.237
14. AGGCGGCAUGGUCCCAGCCUCCUCGCUGGCGCCGGCUGGGCAACAUUCCGAGGGGACCGUCCCCUCGGUAAUGGCGAAUGGGACCCA [G1A C3G]  0.227
15. AGCCGGCAUGGUCCCAGCCUCCUCGCUCGCGCCGGCUGGGCAACAUUCCGAGGGGACCGUCCCCUCGGUAAUGGCGAAUGGGACCCA [G1A G28C]  0.219
16. AGCCGGCAUGGUCCCAGCCUCCUCGCUGGCGCCGGCUGGGCAACAUUCCGAGGGGACCGUCCCCUCGGUGAUGGCGAAUGGGACCCA [G1A A70G]  0.214
17. AGCCGGAAUGGUCCCAGCCUCCUCGCUGGCGCCGGCUGGGCAACAUUCCGAGGGGACCGUCCCCUCGGUAAUGGCGAAUGGGACCCA [G1A C7A]  0.191
18. AGCCGGCAUGGUCCCAGCCUCCUCGCUGGCGCCGGCUGGGCAACAUUCCGAGGGGACCGUCCCCUCGGUAAUGGCGAAUGGGACCUA [G1A C86U]  0.19
19. AGCCGGCAUGCUCCCAGCCUCCUCGCUGGCGCCGGCUGGGCAACAUUCCGAGGGGACCGUCCCCUCGGUAAUGGCGAAUGGGACCCA [G1A G11C]  0.172
20. AGCCGGCAUGGUCCCAGCCUCCUCGCUGGCGCCGGCUGGGCAACAUUCCGAGGAGACCGUCCCCUCGGUAAUGGCGAAUGGGACCCA [G1A G54A]  0.172
21. AGCCGGCAUGGUCCCAGCCUCCUCGCUGGCGCCGGCUGGGCAACAUUCGGAGGGGACCGUCCCCUCGGUAAUGGCGAAUGGGACCCA [G1A C49G]  0.166
22. AGCCGGCAUGGUCCCAGCCUCCUCGCUGGCGCCGGCUGGGCAACAUUCCGAUGGGACCGUCCCCUCGGUAAUGGCGAAUGGGACCCA [G1A G52U]  0.162
23. AGCCGGCAUGGUCCCAGCCUCCUCGCUGGCGCCGGCUGGGCAACAUUCCGAGGGGACCGUCCCCUCGGUAAUGGCGAAUGGGACCCU [G1A A87U]  0.157
24. AGCCGGCAUGGUCCCAGCCUCCUCGCUGGCGCGGGCUGGGCAACAUUCCGAGGGGACCGUCCCCUCGGUAAUGGCGAAUGGGACCCA [G1A C33G]  0.148
25. AGCCGGCAUGGUCCCAGCCUCCUCGCUGGCGCCGGCUGGGCAACAUUCCGAGGGGACCGUCCUCUCGGUAAUGGCGAAUGGGACCCA [G1A C63U]  0.147
26. AGCCGGCAUGGUCCCAGCCUCCUCGCUGGCGCCGGCUGAGCAACAUUCCGAGGGGACCGUCCCCUCGGUAAUGGCGAAUGGGACCCA [G1A G39A]  0.141
27. AGCCGGCAUGGUCCCAGCCUCCUCGCUGGCGCCGGCUGGGCAAGAUUCCGAGGGGACCGUCCCCUCGGUAAUGGCGAAUGGGACCCA [G1A C44G]  0.138
28. AGCCGGCAAGGUCCCAGCCUCCUCGCUGGCGCCGGCUGGGCAACAUUCCGAGGGGACCGUCCCCUCGGUAAUGGCGAAUGGGACCCA [G1A U9A]  0.138
29. AGCCGGCAUGGUCCCAGCCUCCUCGCUGGCGCCGGCUGGGCAACAUUCCGAGGGGACCGUCCCCUCGGUAAUGGCGAAUGGGCCCCA [G1A A83C]  0.138
30. AGCCGGCAUGGUCCCAGCCUCCUCGCUGGCGCCGGCUGGGCAACAUUCCUAGGGGACCGUCCCCUCGGUAAUGGCGAAUGGGACCCA [G1A G50U]  0.128
31. AGCCGGCAUGGUCCCAGCCUCCUCGCUGGCGCCGGCUGGGCAACAUUCCGAGGGGACCGUCCCCUCGGUAAUAGCGAAUGGGACCCA [G1A G73A]  0.128
32. AGCCGGCAUGGUCCCAGCCUCCUCGCUGGCGCCGGCUGGGCAACAUUCCGAGGGGACCGUCCCCUCGGUAAUGGCGAAUGGGACCCC [G1A A87C]  0.121
33. AGCCGGCAUGGUCCCAGCCUCCUCGCUGGCGCCGGCUGGGCAACAUUCCGAGGGGACCGUCCCCUCGGUAAUGGCGAAUGGGACCAA [G1A C86A]  0.119
34. AGCCGGCAUGGUCCCAGACUCCUCGCUGGCGCCGGCUGGGCAACAUUCCGAGGGGACCGUCCCCUCGGUAAUGGCGAAUGGGACCCA [G1A C18A]  0.113
35. AGCCGGCAUGGUCCCACCCUCCUCGCUGGCGCCGGCUGGGCAACAUUCCGAGGGGACCGUCCCCUCGGUAAUGGCGAAUGGGACCCA [G1A G17C]  0.107
36. AGCCGGCAUGGUCCCAGCCUCCUCGCUUGCGCCGGCUGGGCAACAUUCCGAGGGGACCGUCCCCUCGGUAAUGGCGAAUGGGACCCA [G1A G28U]  0.106
37. AGCCGGCAUGGUCCCAGCCUCCUCGCUGGCGCCGGCUGGGCAACAUUCCGAGGGGACAGUCCCCUCGGUAAUGGCGAAUGGGACCCA [G1A C58A]  0.0978
38. AGCCGGCAUGGUCCCAGCCUCCUCGCUGGCGCCGGCUGGGCAACAUUCAGAGGGGACCGUCCCCUCGGUAAUGGCGAAUGGGACCCA [G1A C49A]  0.0923
39. AGCCGGCAUGGUCCCAGCCUCCUCGCUGGCGCCGGCUGGGCAAUAUUCCGAGGGGACCGUCCCCUCGGUAAUGGCGAAUGGGACCCA [G1A C44U]  0.0898
40. ACCCGGCAUGGUCCCAGCCUCCUCGCUGGCGCCGGCUGGGCAACAUUCCGAGGGGACCGUCCCCUCGGUAAUGGCGAAUGGGACCCA [G1A G2C]  0.0773
41. AGCCGGCAUGGUCCCAGCCUCCUGGCUGGCGCCGGCUGGGCAACAUUCCGAGGGGACCGUCCCCUCGGUAAUGGCGAAUGGGACCCA [G1A C24G]  0.0702
42. AGCCGGCAUGGUCGCAGCCUCCUCGCUGGCGCCGGCUGGGCAACAUUCCGAGGGGACCGUCCCCUCGGUAAUGGCGAAUGGGACCCA [G1A C14G]  0.0665
43. AGACGGCAUGGUCCCAGCCUCCUCGCUGGCGCCGGCUGGGCAACAUUCCGAGGGGACCGUCCCCUCGGUAAUGGCGAAUGGGACCCA [G1A C3A]  0.0627
44. AGCCGGCAUGGUCCCAGCCUCCUCGCUGGCGCCGGCUGGGCAACAUUCCGAGGGGACCGUCCCCUCGGUAAUGGCGACUGGGACCCA [G1A A78C]  0.0627
45. AGCCGGCAUGGUCCCAGCCUCCUCGCUGACGCCGGCUGGGCAACAUUCCGAGGGGACCGUCCCCUCGGUAAUGGCGAAUGGGACCCA [G1A G29A]  0.0615
46. AGCCGGCAUGGUCCCAGCCACCUCGCUGGCGCCGGCUGGGCAACAUUCCGAGGGGACCGUCCCCUCGGUAAUGGCGAAUGGGACCCA [G1A U20A]  0.0594
47. AGCCGGCAUGGUCCCAGCCUCCUCGCUGGCGCAGGCUGGGCAACAUUCCGAGGGGACCGUCCCCUCGGUAAUGGCGAAUGGGACCCA [G1A C33A]  0.0554
48. AGCCGGCAUGGUCCCAGCCUGCUCGCUGGCGCCGGCUGGGCAACAUUCCGAGGGGACCGUCCCCUCGGUAAUGGCGAAUGGGACCCA [G1A C21G]  0.0489
49. AGCCGGCAUGGUCCCAGCCUCCUCGCUGGCGCCGGCUGGGCAACAUUCCGAGGUGACCGUCCCCUCGGUAAUGGCGAAUGGGACCCA [G1A G54U]  0.0475
50. AGCCGGCAUGGUCCCAGCCUCCUCGCUGGCGCCGGCUGGGCAACAUUCCGAGGGGACCGUCCCCUCGGUAAUGGCGAAUAGGACCCA [G1A G80A]  0.0455
51. AGCCGGCAUGGUCCCAGCCUCCUCGCUGGCGCCGGCUGGGCAACAUUCCGAGAGGACCGUCCCCUCGGUAAUGGCGAAUGGGACCCA [G1A G53A]  0.0449
52. AGCCGGCAUGGUCCCAGCCUCCUCGCUGGCGCCGGCUGGGCAACAUUCCGAGGGGACCGUCCCCUCGGUAAUGGCGAAUGUGACCCA [G1A G81U]  0.0426
53. AGCCGGCAUGGUCCCAGCCUCCUCGCUGGCGCCGGCUGGGCAACAUUCCGAGGGGACCGUCCCCUCGGUAAUGGCGCAUGGGACCCA [G1A A77C]  0.0405
54. AGCCGGCAUGGUCCCAGCCUCCUCGCUGGCGCCGGCUGGGCAACAUUCCGAGGGGACCGUCCCCUCGGUAAUGACGAAUGGGACCCA [G1A G74A]  0.0287
55. AGCCGGCAUGGUCCCAGCCUCCUCGCUGGCGCCGGCUGGGCAACAUUCCGAGGGGAUCGUCCCCUCGGUAAUGGCGAAUGGGACCCA [G1A C57U]  0
56. AGCCGGCAUGGUCCCAGCCUCCUCGCUGGCGCCGGCUGGGGAACAUUCCGAGGGGACCGUCCCCUCGGUAAUGGCGAAUGGGACCCA [G1A C41G]  0
57. AGCCGGCAUGGUCCCAGCCUCCUCGCUGGCGCCGGCUGGGCAACAUUCCGAGGGGACCGUCCCCGCGGUAAUGGCGAAUGGGACCCA [G1A U65G]  0
58. AGCCGGCAUGGUCCCAGCCUCCUCCCUGGCGCCGGCUGGGCAACAUUCCGAGGGGACCGUCCCCUCGGUAAUGGCGAAUGGGACCCA [G1A G25C]  0
59. AGCCGGCAUGGCCCCAGCCUCCUCGCUGGCGCCGGCUGGGCAACAUUCCGAGGGGACCGUCCCCUCGGUAAUGGCGAAUGGGACCCA [G1A U12C]  0
60. AGCCGGCAUGGUCCCAGCCUCCGCGCUGGCGCCGGCUGGGCAACAUUCCGAGGGGACCGUCCCCUCGGUAAUGGCGAAUGGGACCCA [G1A U23G]  0
61. AGCCGGCUUGGUCCCAGCCUCCUCGCUGGCGCCGGCUGGGCAACAUUCCGAGGGGACCGUCCCCUCGGUAAUGGCGAAUGGGACCCA [G1A A8U]  0
62. AGCCGGCAUGGUCCCAGCCUCCUCGCUGGCGCCGGCUGGGCAACAUUCCGUGGGGACCGUCCCCUCGGUAAUGGCGAAUGGGACCCA [G1A A51U]  0
63. AGCCGGCAUGGUCCCAGCCUCCUCGCGGGCGCCGGCUGGGCAACAUUCCGAGGGGACCGUCCCCUCGGUAAUGGCGAAUGGGACCCA [G1A U27G]  0
64. AGCCGGCAUGGUCCCAGCCCCCUCGCUGGCGCCGGCUGGGCAACAUUCCGAGGGGACCGUCCCCUCGGUAAUGGCGAAUGGGACCCA [G1A U20C]  0
